Source: patent publication US20190284560

Tested on: Bevacizumab (Avastin; anti-VEGF humanized monoclonal antibody) (Homo sapiens (humanized antibody)?)
Settings: quartz crystal microbalance (AFFINIX Q8), velocity analysis; Bevacizumab immobilized on sensor; phosphate buffer (DPBS); aptamer 1.48-2.91 uM; sequence …

## CCGTGTGGTGGGGGTTGGGGGTTGTCGTTCGCCG [Bevacizumab DNA aptamer SEQ ID NO: 1]
  Kd: 9.1 µM
